Test results from patent US6953656B2, “Direct, externally imposed control of polypeptides” (Massachusetts Institute of Technology, priority 2000, dated 2005).
“Also recorded” adds a separate entry of the source. Where no end group is shown, it is not given here.

Assays:
thrombin = thrombin (Homo sapiens, UniProt P00734); details: cited from earlier work
[1] = target: T1, Ribonuclease S (S-protein) (Bos taurus, UniProt P61823); test: RNase S activity assay: increase in acid soluble nucleotides (A280) during hydrolysis of poly-(C), with or without 1 GHz RFMF; format: biochemical; details: for RNase S activity (digested polyC, A280) with the RFMF on compared with RFMF off: 37° C., as a function of reaction time
T1 construct: incubated with the rest of the Ribonuclease S complex, the S-protein; purchased Novagen, Madison, Wis
T1 sequence (P61823 47-150 limits assumed): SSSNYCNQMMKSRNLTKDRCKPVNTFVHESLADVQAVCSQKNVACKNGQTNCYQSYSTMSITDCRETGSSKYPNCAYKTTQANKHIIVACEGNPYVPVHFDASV
Description: In this example, ribonuclease S was associated with a gold nanocrystal modulator (the system described in Example 1). The activity of the enzyme was controlled by induction heating of the modulator using an alternating magnetic field. The frequency of the alternating magnetic field was 1 GHz in the radiofrequency range. Accordingly, the alternating magnetic field is referred to as a radiofrequency magnetic field (RFMF). The modulator S-peptide and S-protein complex was incubated with the substrate, polyC, in solution at 37° C. The tube containing the sample was placed in a coil inside which the RFMF was generated and switched on. Activity was monitored by measuring the amount of digested polyC in the solution. PolyC was purified from the rest of the sample by precipitation with trichloroacetic acid (TCA). The activity was the amount of digested polyC, which is determined by the optical absorption of the sample at 280 nm.
The assay for measuring RNase activity was based on the measurement of increase in acid soluble nucleotides during the hydrolysis of poly-(C) (FIG. 14(a)). All concentrations were expressed as the final concentrations in the assay system. The S-protein (Novagen, Madison, Wis.) with various concentrations of S18 peptide was pre-incubated in 20 mM Na-phosphate buffer, pH 6.0; 100 mM NaCl at 37° C. for 10 minutes followed by initiating the reaction by the addition of the substrate, 0.39 mM poly [C] (sigma). At different time intervals, aliquots were quenched with 5% trichloroacetic acid (TCA). The reaction mixture was kept on ice for 5 minutes and subsequently spun at 13,000 rpm (Biofuge A) for 10 min.
Alternating magnetic fields are generated by applying an electric current to a copper coil that coils around a quartz cuvette. Currents with frequencies in the radio frequency range are obtained by using a RF generator with a current amplifier. The RF is pulsed at 15 second intervals. The RF power levels are varied from −8 dBm to −0.1 dBm. The MF frequency used is 1 GHz.

[2] = target: T1, Ribonuclease S (S-protein); test: as above; format: biochemical

CGAGAG-AETEYDSLYPEDDL (CGAGAGAETEYDSLYPEDDL; thrombin inhibitory peptide: fibrin 414-27) [414-427, fibrin gamma chain fragment peptide]
Inhibition of thrombin activity (thrombin): strongly inhibit

S15: residues 1 to 15 of the wild type S-peptide of ribonuclease S (KETAAAKFERQHMDS) [reference compound]
Enzymatic activity when combined with S-protein, no RF (RF OFF state) [1]: full enzymatic activity | Enzymatic activity when combined with S-protein, no RF (RF OFF state) ([2]; listed as S-peptide with only the N-terminal 15 residues): completely restored the enzymatic activity

n-CGGKETAAAKFERQHMDS-c (S18 peptide)
Enzymatic activity when combined with S-protein, no RF (RF OFF state) [1]: restored the RNase S enzyme activity; also recorded: indistinguishable from that of the S15 native peptide

Hirudin
Affinity for thrombin (thrombin): extremely high affinity | Inhibition of thrombin activity (thrombin): inhibits the enzymatic cleavage of fibrinogen by thrombin

NC(N)=NCCC[C@H](NC(=O)[C@@H]1CCCN1C(=O)[C@H](N)Cc1ccccc1)C(=O)CCl [PPACK, D-Phe-L-Pro-L-Arg-chloromenthy ketone]
Inhibition of thrombin activity (thrombin): inhibitory effect

Au-S18: S18 peptide covalently linked via N-terminal cysteine to a single 1.4 nm gold nanocrystal; tested complexed with S-protein (CGGKETAAAKFERQHMDS; also: linked via N-terminal cysteine to a 1.4 nm gold nanocrystal)
RF power at the 50% activity ([1]; 1 GHz RFMF): −4 dBm | Enzymatic activity when combined with S-protein, no RF (RF OFF state) [1]: active | Effect of higher RF levels on RNase S activity ([1]; RF −4, −3, −2 to −1 dBm, 1 GHz): drastic effect | Effect of low RF levels on RNase S activity ([1]; RF −8 to −5 dBm, 1 GHz): no significant effect | Activity once recovered after RF ([1]; after recovery time): fully active | RNase S activity with the RFMF on compared with RFMF off as a function of modulator-S-peptide concentration ([1]; modulator linked to S-peptide, RFMF 1 GHz, entire concentration range): significantly less than with the RFMF off | RNase S activity (digested polyC, A280) with the RFMF on compared with RFMF off ([1]; modulator linked to S-peptide, RFMF 1 GHz, listed as Au-S18/S peptide): reduced | RNase S activity (digested polyC, A280) with the RFMF on compared with RFMF off ([1]; modulator linked to S-peptide, RFMF 1 GHz, listed as gold nanoparticle linked S-peptide): transiently halting the enzyme activity | RNase S activity (digested polyC, A280) with the RFMF on compared with RFMF off ([1]; modulator linked to S-peptide, RFMF 1 GHz, listed as modulator S-peptide-S-protein complex): less than with the RFMF off | Enzymatic activity when combined with S-protein, no RF (RF OFF state) ([2]; listed as gold nanoparticle linked S-peptide): indistinguishable from the S-peptide without the nanoparticles

CGAGAG-NGDFEEIPEEYL (CGAGAGNGDFEEIPEEYL; thrombin inhibitory peptide: hirudin 53-64) [hirugen53-64, fragment of Hirudin]
Affinity for thrombin (thrombin): very high affinity

CGAGAG-VRPEHPAETEYDSLYPEDDL (CGAGAGVRPEHPAETEYDSLYPEDDL; thrombin inhibitory peptide: fibrin 408-27) [408-427, fibrin gamma chain fragment peptide]
Inhibition of thrombin activity (thrombin): strongly inhibit
